B1: human NUFIP2 (aa 255–411) (domain or fragment, UniProt Q7Z417 255-411, looked up)
chain: KQGLETFKPDYSEQKGNRVDGSKPIWKYETGPGGTSRGKPAVGDMLRKSSDSKPGVSSKKFDDRPKGKHASAVASKEDSWTLFKPPPVFPVDNSSAKIVPKISYASKVKENLNKTIQNSSVSPTSSSSSSSSTGETQTQSSSRLSQVPMSALKSVTS
notes: His6-SUMO cleaved off by PreScission protease; source: E. coli BL21(DE3)pRIL, purified (HisTrap, ion exchange, Superdex 75); not shown: His6-SUMO, N-terminal, cleaved

The target in assay [1] is T1, mouse Roquin-1 (aa 2–441) (mouse, UniProt Q4VGL6 2-441).
T1 construct: mouse Roquin-1 aa 2-441; also called Roquin (aa 2–441)
T1 sequence (looked up): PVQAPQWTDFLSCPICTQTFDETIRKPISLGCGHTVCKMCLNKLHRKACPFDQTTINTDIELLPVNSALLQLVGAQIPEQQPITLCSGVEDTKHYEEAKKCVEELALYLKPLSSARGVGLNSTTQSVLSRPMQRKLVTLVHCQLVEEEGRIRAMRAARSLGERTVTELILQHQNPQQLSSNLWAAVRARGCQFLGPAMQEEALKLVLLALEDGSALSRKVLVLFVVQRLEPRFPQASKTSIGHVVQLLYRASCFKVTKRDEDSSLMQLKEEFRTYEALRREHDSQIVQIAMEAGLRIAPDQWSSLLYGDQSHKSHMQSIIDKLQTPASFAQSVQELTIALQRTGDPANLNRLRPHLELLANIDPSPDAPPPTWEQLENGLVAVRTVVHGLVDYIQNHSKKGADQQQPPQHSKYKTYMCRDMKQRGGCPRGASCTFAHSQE
Put plainly: SPR; BIACORE 3000; Roquin (aa 2–441) immobilised on CM5 chip by amine coupling; NUFIP2 (aa 255–411) injected at 0.063-4 μM, 30 μL/min, 20 °C; 150 mM NaCl, 0.05% Tween20, 10 mM HEPES; steady-state analysis. The settings on record: both partners purified.

The target in assay [2] is B1. In words: SPR; BIACORE 3000; Roquin (aa 2–441) immobilised; 4 μM NUFIP2 (aa 255–411) injected together with 0.016, 0.063, 0.25 or 1 μM FMRP (aa 1–132); 250 mM NaCl, 0.05% Tween20, 10 mM HEPES. The note with it: both partners purified. (SPR reads the build-up and loss of mass on a sensor chip optically.)

For the molecule B1, the Kd – broadly, a measure of binding affinity in units of concentration – in assay [1] was 182 nM.

B2: mouse Fmrp (aa 1–132) (domain or fragment)
chain: not shown
notes: His6-GST cut off by PreScission protease; source: E. coli BL21Star(DE3), purified (HisTrap, GSTTrap, Superdex 75); not shown: His6-GST, N-terminal, cleaved
Turning to B2, the binding result in assay [2] is listed as “binds”.

For the origin of these results see publication PMC5775257, “Binding of NUFIP2 to Roquin promotes recognition and regulation of ICOS mRNA” (Nature Communications, 2018).
